Reference: patent US8084213, “Selection” (Domantis Limited)

Columns and labels:
scArc-Vk(E5)-HA = scArc-Vk(E5)-HA (Phage P22 / human Vk); experiment: co-capture PCR; conditions: tags: C-terminal Vk(E5) dAb fusion, chain copies: 2 scArc per operator (stated)
Procedure: Tubes from Strep Thermofast 96-well plates are coated by applying 2 µl of 0.05 mg/ml biotinylated rat anti-HA mAb (clone 3F10, Roche), 0.2 µl of 0.5 mg/ml biotinylated protein L (Pierce), 1 µl of biotinylated 1 mg/ml β-galactosidase or 0.1 µl of 5 mg/ml biotinylated BSA (Sigma) respectively in 50 µl aliquots of PBS and incubating for 3 hours at room temperature. The monoclonal high-affinity α-HA mAb 3F10 recognises the C-terminal HA tag, β-galactosidase and protein L can be expected to interact with the $V_\kappa$(E5) light chain domain, while BSA serves as the negative control. At the end of the incubation the coating solution is removed and the first blocking solution consisting of 150 µl of 10 ng/ml biotinylated BSA (Sigma) in PBS is added to the wells and incubated for 15 minutes. At the end of the incubation the wells are washed three times with 150 µl of PBS and blocked additionally for 30 min at room temperature with buffer C+.
25 µl S30 in vitro translation reactions (EcoPro T7, Novagen) are assembled according to the manufacturer's instructions and supplemented with 1.5 µl of 1.7 mM PCR-amplified template in 0.1 mg/ml RNA and 0.75 µl of 100 mM oxidized glutathione. […]
(§1) The PCR amplification products are analysed by 1% agarose gel electrophoresis in TAE in the presence of ethidium bromide and imaged using GeneGeius Bio Imaging System (Syngene). […]

Vk(E5)-scArc-HA = Vk(E5)-scArc-HA (Phage P22 / human Vk); experiment: co-capture PCR; recovered also on beta-galactosidase; conditions: tags: N-terminal Vk(E5) dAb fusion, C-terminal HA; chain copies: 2 scArc per operator (stated)
Procedure: The monoclonal high-affinity α-HA mAb 3F10 recognises the C-terminal HA tag, β-galactosidase and protein L can be expected to interact with the $V_\kappa$(E5) light chain domain, while BSA serves as the negative control. At the end of the incubation the coating solution is removed and the first blocking solution consisting of 150 µl of 10 ng/ml biotinylated BSA (Sigma) in PBS is added to the wells and incubated for 15 minutes. At the end of the incubation the wells are washed three times with 150 µl of PBS and blocked additionally for 30 min at room temperature with buffer C+.
25 µl S30 in vitro translation reactions (EcoPro T7, Novagen) are assembled according to the manufacturer's instructions and supplemented with 1.5 µl of 1.7 mM PCR-amplified template in 0.1 mg/ml RNA and 0.75 µl of 100 mM oxidized glutathione. Translation reactions are incubated at 23° C. for 4 hours and diluted with 150 µl of buffer C+ (10 mM Tris, 100 mM KCl, 0.05% Tween 20, 5 mM MgCl_2, 0.1 mM EDTA, 1% w/v BSA) before being applied in 50 µl aliquots to the pre-coated tubes cut from Strep Thermofast 96-well plates (Advanced Biotech) and allowed to bind for 30 min at room temperature. […]
as §1

[1] = biological target: T1, scArc-HA (pIE2 series, single-chain Arc repressor dimer) (Phage P22); experiment: co-capture of DNA on anti-HA 3F10 surface, PCR detection; buffer C+ 100 mM KCl, 5 mM MgCl2, room temp; conditions: tags: C-terminal HA; chain copies: 2 scArc per operator (stated)
T1 chain: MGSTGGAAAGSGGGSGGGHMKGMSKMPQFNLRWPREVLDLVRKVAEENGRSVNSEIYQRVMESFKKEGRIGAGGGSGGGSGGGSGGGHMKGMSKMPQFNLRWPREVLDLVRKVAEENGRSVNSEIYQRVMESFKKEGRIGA
Procedure: In a typical solution expression experiment 1 μl of 1.7 nM template in 0.2 mg/ml tRNA is added to 25 μl EcoPro T7 in vitro translation mix Novagen), supplemented with 0.75 μl of 100 mM oxidized glutathione (Sigma), and incubated at 25° C. for four hours. During the translation reaction the streptavidin-coated PCR tubes, cut from Strep Thermofast 96-well plates (Abgene), are first incubated at room temperature for three hours with 50 μl of at least 40 nM biotinylated target protein in PBS. The coating buffer is thereafter removed and any remaining free biotin-binding sites are blocked with a 15 min pulse of 50 μg/ml biotinylated BSA in PBS. The pre-coated wells are thereafter three times washed with PBS and then filled with 100 μl of binding buffer C+ (100 mM KCl, 20 mM Tris, 5 mM MgCl_2, 0.05% Tween 20, 0.05 mM EDTA, 1% BSA). Upon completion of the translation reaction the products are diluted in Buffer C+ and applied to the pre-coated and blocked PCR tubes, allowed to bind for 30 min at room temperature and washed 4 times with 150 μl of Buffer C+. […]

Measured: binding result

B1: Arc operator, one copy, on linear genetic element (dsDNA)
DNA 1: ATGATAGAAGCACTCTACTAT
DNA 2: ATAGTAGAGTGCTTCTATCAT
binds: scArc-Vk(E5)-HA | Vk(E5)-scArc-HA | [1]
